From patent publication US20240336665A1 (ACROIMMUNE GUANGZHOU BIOTECH, published 2024)

T1: Siglec10-mIgG2aFc fusion protein (AcroBiosystems, SI0-H525b, HEK293 cell derived) (human, UniProt Q96LC7 17-546)
T1 construct: Bought reagent; also called recombinant human Siglec-10-mIgGFc protein; not shown: mouse IgG2a Fc
T1 sequence (looked up): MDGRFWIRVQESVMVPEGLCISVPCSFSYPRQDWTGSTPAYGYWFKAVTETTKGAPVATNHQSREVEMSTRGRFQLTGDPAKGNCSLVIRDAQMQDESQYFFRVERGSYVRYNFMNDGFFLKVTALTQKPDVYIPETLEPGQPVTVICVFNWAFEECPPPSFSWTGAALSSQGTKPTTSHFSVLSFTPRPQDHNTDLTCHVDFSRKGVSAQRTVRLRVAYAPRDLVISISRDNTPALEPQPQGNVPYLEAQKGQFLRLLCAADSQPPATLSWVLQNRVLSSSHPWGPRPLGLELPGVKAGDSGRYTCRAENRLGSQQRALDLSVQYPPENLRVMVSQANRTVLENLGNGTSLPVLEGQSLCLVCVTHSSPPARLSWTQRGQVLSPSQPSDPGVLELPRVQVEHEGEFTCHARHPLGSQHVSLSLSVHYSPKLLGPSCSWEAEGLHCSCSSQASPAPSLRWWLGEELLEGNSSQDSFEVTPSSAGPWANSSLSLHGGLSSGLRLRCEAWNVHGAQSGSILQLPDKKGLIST

B1: CD24Fc fusion protein (Fc fusion, UniProt P25063 27-56, looked up)
chain: SETTTGTSSNSSQSTSNSGLAPNPTNATTK
notes: Comparator protein; also called CD24Fc protein; not shown: Fc detected by anti-human IgG-Fc antibody
B2: HMGB1-His tag protein (AcroBiosystems, HM1-H5220, HEK293 cell derived) (other, human, UniProt P09429 1-215, looked up)
chain: MGKGDPKKPRGKMSSYAFFVQTCREEHKKKHPDASVNFSEFSKKCSERWKTMSAKEKGKFEDMAKADKARYEREMKTYIPPKGETKKKFKDPNAPKRPPSAFFLFCSEYRPKIKGEHPGLSIGDVAKKLGEMWNNTAADDKQPYEKKAAKLKEKYEKDIAAYRAKGKPDAAKKGVVKAEKSKKKKEEEEDEEDEEDEEEEEDEEDEDEEEDDDDE
notes: Bought reagent; also called recombinant human HMGB1-His tag protein; High Mobility Group Box 1; not shown: His tag

Legend:
[1] = target: T1, Siglec10-mIgG2aFc fusion protein …; experiment: ELISA, Siglec10-mIgG2aFc coated, detection by anti-human IgG-Fc-HRP
Procedure: In-brief, 96-well plates were coated (100 μL per well) with 0.2 μg/mL of Siglec10-mIgG2aFc fusion protein (AcroBiosystems, SI0-H525b, HEK293 cell derived) at 4° C. overnight. After blocking with SuperBlock (Thermo, 37515) at room temperature for 1 hour, 100 μL of 2-fold serial dilutions of either AI-072 or CD24Fc (all starting at 1.5 mg/ml) were added. The bound AI-072 or CD24Fc protein was then detected by HRP-labeled goat anti-human IgG-Fc antibody (1:5000, Invitrogen, A18829) followed by the addition of Tetramethylbenzidin (TMB) substrate. After a color development at room temp for 15 min, 2N HCl stop solution was added into the plate. The OD values at a wavelength of 450 nm (OD 450 nm) in each well were then measured.

[2] = target: B2; experiment: ELISA, HMGB1-His coated, detection by anti-human IgG-Fc-HRP
Procedure: In-brief, 96-well plates were coated (100 μL per well) with 0.1 μg/mL HMGB1-His tag protein (AcroBiosystems, HM1-H5220, HEK293 cell derived) at 4° C. overnight. After blocking with SuperBlock (Thermo, 37515) at room temperature for 1 hour, 100 μL of 2-fold serial dilutions of AI-72 or CD24Fc (all starting at 1.5 mg/ml, and diluted in PBST-1% BSA solution containing 1 mM MgCl2 and 1 mM CaCl2) were added. The bound AI-072 or CD24Fc protein was then detected by adding HRP-labeled goat anti-human IgG-Fc antibody (1:1000, Invitrogen, A18829), followed by the addition of tetramethylbenzidin (TMB) substrate. After a color development at room temp for 15 mins, 2N HCl stop solution was then added into the plate. The OD values at a wavelength of 450 nm in each well were then measured.

[3] = target: T2, human IgG1-Fc control protein (human, UniProt P01857-1 100-330 = IgG part, limits assumed); experiment: protein A bead pull-down, SDS-PAGE with Coomassie staining
T2 construct: domain: Fc; Control in the pull-down assay; also called human IgG-Fc control
Procedure: FIGS. 8A-8B illustrate the association of AI-072 protein with human HMGB1 in a pull-down assay. Recombinant HMGB1-His protein sample was incubated with AI-072, human IgG-Fc control, or none for 5 min, then add protein A-conjugated beads to the mixture to capture (or pull-down) the bound proteins. The captured proteins were then separated in an SDS-PAGE gel and visualized by Coomassie Brilliant Blue dye staining. […] As indicated on the top of each gel, lane 1 represents the sample containing HMGB1 only, lane 2 represents the sample containing HMGB1 and human IgG-Fc, and lane 3 represents the sample containing HMGB1 and AI-072, lane M is the protein molecule weight marker sample.
In-brief, 8 μL of 500 μg/mL HMGB1-His protein was mixed with either about 3 μg AI-072 or human IgG1-Fc control protein or none, and set at room temp for 5 min. The mixtures were then incubated with protein A-conjugated beads to capture (or pull-down) the bound proteins. The captured proteins were separated in an SDS-PAGE gel and visualized by Coomassie Brilliant Blue dye staining.

| Binder | EC50 [1] | EC50 [2] | binding result [3] |
| --- | --- | --- | --- |
| B1 | 2.85 µM | 51 µM | – |
| B2 | – | – | no binding (tested: about 3 ug) |
